Data on five molecules can be found in patent publication EP4606822A1 (MULTITUDE THERAPEUTICS INC., dated 2024).

Usually EC50 stands for the midpoint of the concentration-response curve. High values mean lower potency in that assay, low ones higher potency in that assay.

The target of assay [1] is T1, HER3 on human tumor cell lines (human, UniProt P21860 20-1342).
T1 construct: whole, on cells; The immunogen was the human HER3 extracellular domain (NM_001982.4, positions 20-643), but the flow cytometry assays used endogenous HER3 on cells; also called HER3 protein
The assay is described as follows: flow cytometry on SW620 cells. For orientation: Flow cytometry measures light scatter and fluorescence of single cells or particles in a stream.

Assay [2] addresses T1, HER3 on human tumor cell lines. Nature of the assay: flow cytometry on MDA-MB-453 cells.

T1 sequence (P21860 20-1342): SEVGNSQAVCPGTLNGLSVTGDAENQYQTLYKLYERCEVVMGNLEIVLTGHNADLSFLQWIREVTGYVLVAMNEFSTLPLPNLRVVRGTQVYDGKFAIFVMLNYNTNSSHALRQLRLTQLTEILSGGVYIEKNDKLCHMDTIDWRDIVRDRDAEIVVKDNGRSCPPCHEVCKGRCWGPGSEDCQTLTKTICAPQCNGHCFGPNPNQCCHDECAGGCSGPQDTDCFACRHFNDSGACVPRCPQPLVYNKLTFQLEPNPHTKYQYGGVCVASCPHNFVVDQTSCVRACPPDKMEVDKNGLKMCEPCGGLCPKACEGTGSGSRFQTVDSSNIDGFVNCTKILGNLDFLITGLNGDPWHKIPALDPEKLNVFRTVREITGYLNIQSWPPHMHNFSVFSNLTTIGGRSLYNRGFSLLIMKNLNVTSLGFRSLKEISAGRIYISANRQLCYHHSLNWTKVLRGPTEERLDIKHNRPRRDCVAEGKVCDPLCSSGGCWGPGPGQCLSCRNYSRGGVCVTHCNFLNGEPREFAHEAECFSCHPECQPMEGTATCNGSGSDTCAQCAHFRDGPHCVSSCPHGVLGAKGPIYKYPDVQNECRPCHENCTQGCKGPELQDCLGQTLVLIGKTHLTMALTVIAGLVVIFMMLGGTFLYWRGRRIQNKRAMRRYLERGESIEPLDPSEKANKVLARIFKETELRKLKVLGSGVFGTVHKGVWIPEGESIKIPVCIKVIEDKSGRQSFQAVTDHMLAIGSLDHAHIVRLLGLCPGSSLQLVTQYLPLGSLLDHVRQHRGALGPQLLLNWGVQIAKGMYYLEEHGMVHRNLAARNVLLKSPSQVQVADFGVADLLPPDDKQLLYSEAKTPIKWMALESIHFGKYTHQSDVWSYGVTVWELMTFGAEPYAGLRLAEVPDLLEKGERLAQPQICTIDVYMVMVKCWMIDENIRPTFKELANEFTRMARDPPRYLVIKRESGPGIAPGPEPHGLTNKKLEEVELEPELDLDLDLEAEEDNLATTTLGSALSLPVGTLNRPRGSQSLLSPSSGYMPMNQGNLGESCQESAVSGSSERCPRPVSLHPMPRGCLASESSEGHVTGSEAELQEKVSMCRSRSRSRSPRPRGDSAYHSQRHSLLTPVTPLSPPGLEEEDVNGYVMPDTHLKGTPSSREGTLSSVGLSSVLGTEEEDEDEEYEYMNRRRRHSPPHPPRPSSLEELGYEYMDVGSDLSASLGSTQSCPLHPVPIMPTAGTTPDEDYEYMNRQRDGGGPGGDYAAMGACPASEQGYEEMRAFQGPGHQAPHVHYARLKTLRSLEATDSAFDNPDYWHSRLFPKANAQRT

B1: humanized 4O3 antibody L2H4 (antibody, human IgG1, kappa, V domains shown)
VH: QVQLQESGPGLVKPSQTLSLTCTVSGISITTGNYRWSWIRQHPGKKLEWIGNIYYSGAITYNPSLKSRVTISRDTSKNQFFLKLSSVTAADTAVYYCARDGGTVVEGWYFDVWGKGTTVTVSS
VL: EIVLTQSPDTQSVTPKEKVTITCRASQSISDYLHWYQQKPDQSPKLLIKYASQSISGVPSRFSGSGSGTDFTLTINSLEAEDVGLYYCQSGRSFPLTFGGGTKVEIKR
notes: also called Hu4O3
As for B1, the response in assay [1] was half-maximal at 1.2 µM (EC50).

B2: humanized 4O3 antibody L4H7 (antibody, human IgG1, kappa, V domains shown)
VH: QVQLQESGPGLVKPSQTLSLTCTVSGISITTGNYRWSWIRQPPGKGLEWIGYIYYSGAITYNPSLKSRVTISRDTSKNQFSLQLRSVTAADTAVYYCARDGGTVVEGWYFDVWGQGTTVTVSS
VL: EIVLTQSPDTQSVTPKEKVTITCRASQSISDYLHWYQQKPGQAPKLLIKYASQSISGVPSRFSGSGSGTDFTLTINSLEAEDFGLYYCQSGRSFPLTFGGGTKVEIKR
notes: also called Hu4O3
Regarding B2, in assay [1], the EC50 is 0.0219 µM.

B3: humanized 4O3 antibody L1H5 (antibody, human IgG1, kappa)
heavy: not shown
light: EIVLTQSPDTQSVTPKEKVTITCRASQSISDYLHWYQQKPDQSPKLLIKYASQSISGVPSRFSGSGSGTDFTLTINSLEAEDAATYYCQSGRSFPLTFGGGTKVEIKRTVAAPSVFIFPPSDEQLKSGTASVVCLLNNFYPREAKVQWKVDNALQSGNSQESVTEQDSKDSTYSLSSTLTLSKADYEKHKVYACEVTHQGLSSPVTKSFNRGEC
notes: also called Hu4O3 (L1H5); Hu4O3
Take B3: the EC50 came out at 0.147 µM in assay [1] and 0.122 µM in assay [2].

B4: humanized 4O3 antibody L1H4 (antibody, human IgG1, kappa)
heavy: not shown
light: EIVLTQSPDTQSVTPKEKVTITCRASQSISDYLHWYQQKPDQSPKLLIKYASQSISGVPSRFSGSGSGTDFTLTINSLEAEDAATYYCQSGRSFPLTFGGGTKVEIKRTVAAPSVFIFPPSDEQLKSGTASVVCLLNNFYPREAKVQWKVDNALQSGNSQESVTEQDSKDSTYSLSSTLTLSKADYEKHKVYACEVTHQGLSSPVTKSFNRGEC
notes: also called Hu4O3
In the case of B4, the EC50 in assay [1] turned out to be 0.194 µM; in assay [2], 0.0715 µM.

B5: humanized 4O3 antibody L4H4 (antibody, human IgG1, kappa, V domains shown)
VH: QVQLQESGPGLVKPSQTLSLTCTVSGISITTGNYRWSWIRQHPGKKLEWIGNIYYSGAITYNPSLKSRVTISRDTSKNQFFLKLSSVTAADTAVYYCARDGGTVVEGWYFDVWGKGTTVTVSS
VL: EIVLTQSPDTQSVTPKEKVTITCRASQSISDYLHWYQQKPGQAPKLLIKYASQSISGVPSRFSGSGSGTDFTLTINSLEAEDFGLYYCQSGRSFPLTFGGGTKVEIKR
notes: also called Hu4O3
On to B5, for which the EC50 in assay [1] worked out at 0.09 µM.
